Reference: patent US20200199241A1 (Chugai, published 2020)
Substitutions are numbered along the chain they refer to. Numbers in names are those of the source.

T1: human FcγRIIa(R) (human, UniProt P12318 36-217)
T1 construct: also called FcgRIIaR; hFcgRIIa(R)
T1 chain: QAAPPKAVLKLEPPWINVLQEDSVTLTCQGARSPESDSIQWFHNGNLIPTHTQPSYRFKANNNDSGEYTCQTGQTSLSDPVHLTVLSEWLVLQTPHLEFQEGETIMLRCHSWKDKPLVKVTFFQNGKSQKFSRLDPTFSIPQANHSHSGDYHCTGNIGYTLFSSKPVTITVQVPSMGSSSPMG

T2: human FcγRIIa(H) (human, UniProt P12318 36-217)
T2 construct: also called FcgRIIaH; hFcgRIIa(H)
T2 sequence: T1 chain with R133H

T3: human FcγRIIb (human, UniProt P31994 43-217, limits assumed)
T3 construct: also called FcgRIIb; hFcgRIIb
T3 sequence: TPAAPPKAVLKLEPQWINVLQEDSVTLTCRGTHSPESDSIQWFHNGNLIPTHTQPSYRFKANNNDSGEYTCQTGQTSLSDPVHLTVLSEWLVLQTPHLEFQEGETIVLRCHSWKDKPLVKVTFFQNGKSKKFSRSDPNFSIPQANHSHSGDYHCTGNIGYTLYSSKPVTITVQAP

B1: GpH7-B3 P329N/GpL16-k0 (antibody, human IgG1)
heavy: not shown
light: DIVMTQSPLSLPVTPGEPASISCQASESLVHSNRNTYLHWYLQKPGQSPQLLIYKVSNRFSGVPDRFSGSGSGTDFTLKISRVEAEDVGVYYCSQNTHVPPTFGQGTKVEIE
notes: B3 variant; copies: 2 + 2
B2: GpH7-B3 S298R/GpL16-k0 (antibody, human IgG1)
heavy: not shown
light: B1 light
notes: B3 variant; copies: 2 + 2
B3: GpH7-B3 S298P/GpL16-k0 (antibody, human IgG1)
heavy: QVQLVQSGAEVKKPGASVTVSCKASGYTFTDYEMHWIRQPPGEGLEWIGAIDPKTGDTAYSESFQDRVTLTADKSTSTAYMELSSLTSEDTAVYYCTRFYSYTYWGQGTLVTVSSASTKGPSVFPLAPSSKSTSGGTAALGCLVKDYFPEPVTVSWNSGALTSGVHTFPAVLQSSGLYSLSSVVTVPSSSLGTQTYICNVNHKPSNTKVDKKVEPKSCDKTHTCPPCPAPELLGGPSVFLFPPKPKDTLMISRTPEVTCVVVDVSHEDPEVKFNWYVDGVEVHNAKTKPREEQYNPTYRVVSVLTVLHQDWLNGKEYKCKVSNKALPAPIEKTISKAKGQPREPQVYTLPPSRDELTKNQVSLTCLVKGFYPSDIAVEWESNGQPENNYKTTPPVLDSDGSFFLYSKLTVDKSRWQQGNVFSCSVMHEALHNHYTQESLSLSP
light: B1 light
notes: B3 variant; copies: 2 + 2
B4: GpH7-B3 P329Q/GpL16-k0 (antibody, human IgG1)
heavy: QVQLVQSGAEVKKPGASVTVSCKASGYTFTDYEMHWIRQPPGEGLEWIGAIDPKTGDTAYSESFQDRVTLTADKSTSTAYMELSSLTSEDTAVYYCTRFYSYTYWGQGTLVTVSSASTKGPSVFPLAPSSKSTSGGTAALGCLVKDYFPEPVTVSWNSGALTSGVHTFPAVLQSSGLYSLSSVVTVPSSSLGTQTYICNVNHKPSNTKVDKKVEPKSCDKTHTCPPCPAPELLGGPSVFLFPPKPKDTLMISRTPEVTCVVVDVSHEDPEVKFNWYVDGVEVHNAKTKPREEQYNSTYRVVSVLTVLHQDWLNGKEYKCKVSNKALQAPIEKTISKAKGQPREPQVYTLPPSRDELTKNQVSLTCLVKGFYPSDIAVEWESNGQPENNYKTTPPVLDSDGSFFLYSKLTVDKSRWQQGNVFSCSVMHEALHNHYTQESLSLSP
light: B1 light
notes: B3 variant; copies: 2 + 2
B5: GpH7-B3 S298Y/GpL16-k0 (antibody, human IgG1)
heavy: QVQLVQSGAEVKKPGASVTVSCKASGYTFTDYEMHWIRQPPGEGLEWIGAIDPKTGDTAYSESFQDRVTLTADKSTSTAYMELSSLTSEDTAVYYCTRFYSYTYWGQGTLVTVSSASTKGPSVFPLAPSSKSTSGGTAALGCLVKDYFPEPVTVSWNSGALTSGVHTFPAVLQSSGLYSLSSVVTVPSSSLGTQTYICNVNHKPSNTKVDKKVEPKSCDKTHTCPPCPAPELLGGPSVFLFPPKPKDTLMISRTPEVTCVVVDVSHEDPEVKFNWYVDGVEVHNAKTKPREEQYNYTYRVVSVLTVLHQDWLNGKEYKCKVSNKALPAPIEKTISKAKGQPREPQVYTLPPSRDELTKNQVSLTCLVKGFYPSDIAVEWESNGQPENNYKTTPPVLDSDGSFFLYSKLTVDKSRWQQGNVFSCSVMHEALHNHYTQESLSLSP
light: B1 light
notes: B3 variant; copies: 2 + 2
B6: GpH7-B3 Q295R/GpL16-k0 (antibody, human IgG1)
heavy: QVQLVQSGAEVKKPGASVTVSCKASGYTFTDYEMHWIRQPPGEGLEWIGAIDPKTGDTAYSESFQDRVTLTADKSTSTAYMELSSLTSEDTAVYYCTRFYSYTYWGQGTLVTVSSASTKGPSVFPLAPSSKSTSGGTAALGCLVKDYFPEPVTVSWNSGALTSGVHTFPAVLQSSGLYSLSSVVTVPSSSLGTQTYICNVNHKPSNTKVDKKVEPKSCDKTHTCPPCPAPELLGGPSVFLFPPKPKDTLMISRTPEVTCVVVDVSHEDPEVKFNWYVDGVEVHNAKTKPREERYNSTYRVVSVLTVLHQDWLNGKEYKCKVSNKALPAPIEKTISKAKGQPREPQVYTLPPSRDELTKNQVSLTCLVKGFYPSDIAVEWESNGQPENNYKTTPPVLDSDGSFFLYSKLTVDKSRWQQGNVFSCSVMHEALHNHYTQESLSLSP
light: B1 light
notes: B3 variant; copies: 2 + 2
B7: GpH7-B3 P331K/GpL16-k0 (antibody, human IgG1)
heavy: not shown
light: B1 light
notes: B3 variant; copies: 2 + 2
B8: GpH7-B3 P329V/GpL16-k0 (antibody, human IgG1)
heavy: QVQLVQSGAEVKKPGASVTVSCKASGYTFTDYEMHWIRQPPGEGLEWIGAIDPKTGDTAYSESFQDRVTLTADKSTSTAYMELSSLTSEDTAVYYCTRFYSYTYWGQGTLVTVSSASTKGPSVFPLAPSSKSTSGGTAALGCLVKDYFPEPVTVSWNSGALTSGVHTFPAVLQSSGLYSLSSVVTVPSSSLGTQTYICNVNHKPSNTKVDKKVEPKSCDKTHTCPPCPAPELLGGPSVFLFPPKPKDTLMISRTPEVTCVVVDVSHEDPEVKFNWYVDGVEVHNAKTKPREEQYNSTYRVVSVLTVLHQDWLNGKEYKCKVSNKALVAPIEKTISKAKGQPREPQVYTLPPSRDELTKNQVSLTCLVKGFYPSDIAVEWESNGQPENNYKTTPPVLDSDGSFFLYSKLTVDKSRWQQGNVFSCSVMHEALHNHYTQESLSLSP
light: B1 light
notes: B3 variant; copies: 2 + 2
B9: GpH7-B3 Q295Y/GpL16-k0 (antibody, human IgG1)
heavy: not shown
light: B1 light
notes: B3 variant; copies: 2 + 2
B10: GpH7-B3 Q295D/GpL16-k0 (antibody, human IgG1)
heavy: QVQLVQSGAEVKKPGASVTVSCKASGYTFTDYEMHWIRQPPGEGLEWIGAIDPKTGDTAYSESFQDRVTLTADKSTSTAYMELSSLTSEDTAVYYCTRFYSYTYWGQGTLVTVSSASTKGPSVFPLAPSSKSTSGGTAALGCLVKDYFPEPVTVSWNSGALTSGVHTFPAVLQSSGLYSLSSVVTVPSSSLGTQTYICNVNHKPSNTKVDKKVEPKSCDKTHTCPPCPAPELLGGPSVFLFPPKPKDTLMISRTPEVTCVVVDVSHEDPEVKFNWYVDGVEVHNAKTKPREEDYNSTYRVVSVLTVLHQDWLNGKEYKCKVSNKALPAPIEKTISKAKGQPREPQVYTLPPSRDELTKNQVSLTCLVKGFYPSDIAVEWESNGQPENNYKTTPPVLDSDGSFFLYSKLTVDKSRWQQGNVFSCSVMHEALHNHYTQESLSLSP
light: B1 light
notes: B3 variant; copies: 2 + 2
B11: GpH7-B3 Q295F/GpL16-k0 (antibody, human IgG1)
heavy: not shown
light: B1 light
notes: B3 variant; copies: 2 + 2
B12: GpH7-B3 P329S/GpL16-k0 (antibody, human IgG1)
heavy: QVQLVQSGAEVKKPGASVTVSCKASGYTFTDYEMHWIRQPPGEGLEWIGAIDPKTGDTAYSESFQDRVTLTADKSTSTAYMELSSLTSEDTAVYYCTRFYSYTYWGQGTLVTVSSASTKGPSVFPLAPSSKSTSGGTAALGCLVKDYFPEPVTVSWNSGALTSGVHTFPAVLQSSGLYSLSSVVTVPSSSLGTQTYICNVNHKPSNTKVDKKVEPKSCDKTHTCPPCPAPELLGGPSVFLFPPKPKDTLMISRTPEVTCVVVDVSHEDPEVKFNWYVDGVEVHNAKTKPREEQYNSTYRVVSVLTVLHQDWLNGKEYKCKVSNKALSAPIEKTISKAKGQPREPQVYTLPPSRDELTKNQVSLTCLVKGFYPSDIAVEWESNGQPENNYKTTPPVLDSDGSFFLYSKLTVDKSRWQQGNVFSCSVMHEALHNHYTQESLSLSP
light: B1 light
notes: B3 variant; copies: 2 + 2
B13: GpH7-B3 Q295S/GpL16-k0 (antibody, human IgG1)
heavy: not shown
light: B1 light
notes: B3 variant; copies: 2 + 2
B14: GpH7-B3 S298G/GpL16-k0 (antibody, human IgG1)
heavy: not shown
light: B1 light
notes: B3 variant; copies: 2 + 2
B15: GpH7-B3 Q295N/GpL16-k0 (antibody, human IgG1)
heavy: not shown
light: B1 light
notes: B3 variant; copies: 2 + 2
B16: GpH7-B3 P329T/GpL16-k0 (antibody, human IgG1)
heavy: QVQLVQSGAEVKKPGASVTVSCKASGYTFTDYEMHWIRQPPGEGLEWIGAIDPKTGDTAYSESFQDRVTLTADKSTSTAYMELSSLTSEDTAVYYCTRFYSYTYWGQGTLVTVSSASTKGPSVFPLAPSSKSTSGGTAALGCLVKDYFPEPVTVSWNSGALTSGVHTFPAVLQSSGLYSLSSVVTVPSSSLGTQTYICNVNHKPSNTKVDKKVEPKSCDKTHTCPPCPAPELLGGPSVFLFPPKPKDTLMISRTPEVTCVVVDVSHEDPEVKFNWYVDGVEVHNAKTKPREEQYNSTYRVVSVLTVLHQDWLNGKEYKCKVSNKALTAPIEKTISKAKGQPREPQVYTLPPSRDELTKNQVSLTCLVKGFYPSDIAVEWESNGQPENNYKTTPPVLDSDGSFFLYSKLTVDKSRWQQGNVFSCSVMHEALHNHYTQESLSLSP
light: B1 light
notes: B3 variant; copies: 2 + 2
B17: GpH7-B3 S324K/GpL16-k0 (antibody, human IgG1)
heavy: not shown
light: B1 light
notes: B3 variant; copies: 2 + 2
B18: GpH7-B3 Q295W/GpL16-k0 (antibody, human IgG1)
heavy: not shown
light: B1 light
notes: B3 variant; copies: 2 + 2
B19: GpH7-B3 S298K/GpL16-k0 (antibody, human IgG1)
heavy: not shown
light: B1 light
notes: B3 variant; copies: 2 + 2
B20: GpH7-B3 P329W/GpL16-k0 (antibody, human IgG1)
heavy: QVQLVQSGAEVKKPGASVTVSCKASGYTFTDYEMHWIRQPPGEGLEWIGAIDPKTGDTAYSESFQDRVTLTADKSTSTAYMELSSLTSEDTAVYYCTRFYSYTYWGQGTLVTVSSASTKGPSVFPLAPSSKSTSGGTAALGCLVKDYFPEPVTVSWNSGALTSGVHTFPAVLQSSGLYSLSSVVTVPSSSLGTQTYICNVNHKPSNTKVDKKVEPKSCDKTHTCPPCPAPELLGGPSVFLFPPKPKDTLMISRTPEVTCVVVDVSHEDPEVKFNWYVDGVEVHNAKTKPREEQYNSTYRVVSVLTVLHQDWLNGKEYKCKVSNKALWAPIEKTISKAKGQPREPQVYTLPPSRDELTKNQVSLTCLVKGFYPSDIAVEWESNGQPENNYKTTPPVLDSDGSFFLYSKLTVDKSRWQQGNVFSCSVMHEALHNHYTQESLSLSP
light: B1 light
notes: B3 variant; copies: 2 + 2
B21: GpH7-B3 S324P/GpL16-k0 (antibody, human IgG1)
heavy: not shown
light: B1 light
notes: B3 variant; copies: 2 + 2
B22: GpH7-B3 P329R/GpL16-k0 (antibody, human IgG1)
heavy: not shown
light: B1 light
notes: B3 variant; copies: 2 + 2
B23: GpH7-B3 Q295G/GpL16-k0 (antibody, human IgG1)
heavy: not shown
light: B1 light
notes: B3 variant; copies: 2 + 2
B24: GpH7-B3 Q295H/GpL16-k0 (antibody, human IgG1)
heavy: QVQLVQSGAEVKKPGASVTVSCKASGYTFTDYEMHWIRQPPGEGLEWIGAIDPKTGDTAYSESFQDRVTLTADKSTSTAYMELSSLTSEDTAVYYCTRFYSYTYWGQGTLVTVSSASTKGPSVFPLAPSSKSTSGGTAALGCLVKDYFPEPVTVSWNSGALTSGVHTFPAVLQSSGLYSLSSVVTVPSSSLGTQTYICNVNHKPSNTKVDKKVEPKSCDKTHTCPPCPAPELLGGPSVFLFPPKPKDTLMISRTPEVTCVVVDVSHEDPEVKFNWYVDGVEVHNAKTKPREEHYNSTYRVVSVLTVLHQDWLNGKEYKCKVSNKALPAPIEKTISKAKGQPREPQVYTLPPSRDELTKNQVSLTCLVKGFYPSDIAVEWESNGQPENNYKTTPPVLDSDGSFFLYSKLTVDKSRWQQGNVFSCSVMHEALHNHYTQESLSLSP
light: B1 light
notes: B3 variant; copies: 2 + 2
B25: GpH7-B3 P331R/GpL16-k0 (antibody, human IgG1)
heavy: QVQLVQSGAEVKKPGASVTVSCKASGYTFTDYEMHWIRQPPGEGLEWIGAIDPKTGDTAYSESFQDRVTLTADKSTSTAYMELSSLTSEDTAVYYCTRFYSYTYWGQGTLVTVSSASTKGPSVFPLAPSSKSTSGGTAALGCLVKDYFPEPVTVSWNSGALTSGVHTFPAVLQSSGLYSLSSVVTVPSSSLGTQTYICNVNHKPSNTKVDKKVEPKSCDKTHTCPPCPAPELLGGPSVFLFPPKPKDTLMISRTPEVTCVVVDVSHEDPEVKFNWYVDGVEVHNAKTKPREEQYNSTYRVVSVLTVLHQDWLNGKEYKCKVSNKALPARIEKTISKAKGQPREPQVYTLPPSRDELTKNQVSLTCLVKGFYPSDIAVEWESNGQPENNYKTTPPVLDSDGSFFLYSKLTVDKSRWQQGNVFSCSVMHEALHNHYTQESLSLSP
light: B1 light
notes: B3 variant; copies: 2 + 2
B26: GpH7-B3 P329Y/GpL16-k0 (antibody, human IgG1)
heavy: not shown
light: B1 light
notes: B3 variant; copies: 2 + 2
B27: GpH7-B3 P331G/GpL16-k0 (antibody, human IgG1)
heavy: not shown
light: B1 light
notes: B3 variant; copies: 2 + 2

Biological target: T4, human FcγRIa (human, UniProt P12314 16-292, limits assumed)
T4 construct: also called FcgRIa; hFcgRIa
Test: SPR, captured antibody;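 further: antibody captured on a sensor chip, Fcγ receptor flowed over at 25 °C, receptor binding normalized to the captured antibody amount and expressed relative to the reference antibody ×100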

Row | Binder | relative binding activity
1 | B1 | 45 % of GpH7-B3/GpL16-k0
2 | B2 | 92 % of GpH7-B3/GpL16-k0
3 | B3 | 15 % of GpH7-B3/GpL16-k0
4 | B4 | 43 % of GpH7-B3/GpL16-k0
5 | B5 | 100 % of GpH7-B3/GpL16-k0
6 | B6 | 100 % of GpH7-B3/GpL16-k0
7 | B7 | 98 % of GpH7-B3/GpL16-k0
8 | B8 | 95 % of GpH7-B3/GpL16-k0
9 | B9 | 95 % of GpH7-B3/GpL16-k0
10 | B10 | 95 % of GpH7-B3/GpL16-k0
11 | B11 | 99 % of GpH7-B3/GpL16-k0
12 | B12 | 60 % of GpH7-B3/GpL16-k0
13 | B13 | 100 % of GpH7-B3/GpL16-k0
14 | B14 | 100 % of GpH7-B3/GpL16-k0
15 | B15 | 99 % of GpH7-B3/GpL16-k0
16 | B16 | 43 % of GpH7-B3/GpL16-k0
17 | B17 | 94 % of GpH7-B3/GpL16-k0
18 | B18 | 81 % of GpH7-B3/GpL16-k0
19 | B19 | 88 % of GpH7-B3/GpL16-k0
20 | B20 | 94 % of GpH7-B3/GpL16-k0
21 | B21 | 91 % of GpH7-B3/GpL16-k0
22 | B22 | 9 % of GpH7-B3/GpL16-k0
23 | B23 | 89 % of GpH7-B3/GpL16-k0
24 | B24 | 97 % of GpH7-B3/GpL16-k0
25 | B25 | 95 % of GpH7-B3/GpL16-k0
26 | B26 | 76 % of GpH7-B3/GpL16-k0
27 | B27 | 88 % of GpH7-B3/GpL16-k0

Biological target: T1, human FcγRIIa(R)
Test: SPR, captured antibody;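 further: antibody captured on a sensor chip, Fcγ receptor flowed over at 25 °C, receptor binding normalized to the captured antibody amount and expressed relative to the reference antibody ×100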

Row | Binder | relative binding activity
28 | B1 | 4 % of GpH7-B3/GpL16-k0
29 | B2 | 62 % of GpH7-B3/GpL16-k0
30 | B3 | 0 % of GpH7-B3/GpL16-k0
31 | B4 | -1 % of GpH7-B3/GpL16-k0
32 | B5 | 33 % of GpH7-B3/GpL16-k0
33 | B6 | 61 % of GpH7-B3/GpL16-k0
34 | B7 | 72 % of GpH7-B3/GpL16-k0
35 | B8 | 24 % of GpH7-B3/GpL16-k0
36 | B9 | 38 % of GpH7-B3/GpL16-k0
37 | B10 | 43 % of GpH7-B3/GpL16-k0
38 | B11 | 46 % of GpH7-B3/GpL16-k0
39 | B12 | 0 % of GpH7-B3/GpL16-k0
40 | B13 | 52 % of GpH7-B3/GpL16-k0
41 | B14 | 89 % of GpH7-B3/GpL16-k0
42 | B15 | 56 % of GpH7-B3/GpL16-k0
43 | B16 | -2 % of GpH7-B3/GpL16-k0
44 | B17 | 75 % of GpH7-B3/GpL16-k0
45 | B18 | 26 % of GpH7-B3/GpL16-k0
46 | B19 | 79 % of GpH7-B3/GpL16-k0
47 | B20 | 1 % of GpH7-B3/GpL16-k0
48 | B21 | 34 % of GpH7-B3/GpL16-k0
49 | B22 | -2 % of GpH7-B3/GpL16-k0
50 | B23 | 36 % of GpH7-B3/GpL16-k0
51 | B24 | 45 % of GpH7-B3/GpL16-k0
52 | B25 | 64 % of GpH7-B3/GpL16-k0
53 | B26 | -1 % of GpH7-B3/GpL16-k0
54 | B27 | 13 % of GpH7-B3/GpL16-k0

Biological target: T2, human FcγRIIa(H)
Test: SPR, captured antibody;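 further: antibody captured on a sensor chip, Fcγ receptor flowed over at 25 °C, receptor binding normalized to the captured antibody amount and expressed relative to the reference antibody ×100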

Row | Binder | relative binding activity
55 | B1 | 5 % of GpH7-B3/GpL16-k0
56 | B2 | 36 % of GpH7-B3/GpL16-k0
57 | B3 | 0 % of GpH7-B3/GpL16-k0
58 | B4 | 0 % of GpH7-B3/GpL16-k0
59 | B5 | 35 % of GpH7-B3/GpL16-k0
60 | B6 | 94 % of GpH7-B3/GpL16-k0
61 | B7 | 58 % of GpH7-B3/GpL16-k0
62 | B8 | 28 % of GpH7-B3/GpL16-k0
63 | B9 | 70 % of GpH7-B3/GpL16-k0
64 | B10 | 37 % of GpH7-B3/GpL16-k0
65 | B11 | 74 % of GpH7-B3/GpL16-k0
66 | B12 | 1 % of GpH7-B3/GpL16-k0
67 | B13 | 67 % of GpH7-B3/GpL16-k0
68 | B14 | 43 % of GpH7-B3/GpL16-k0
69 | B15 | 74 % of GpH7-B3/GpL16-k0
70 | B16 | 0 % of GpH7-B3/GpL16-k0
71 | B17 | 97 % of GpH7-B3/GpL16-k0
72 | B18 | 38 % of GpH7-B3/GpL16-k0
73 | B19 | 38 % of GpH7-B3/GpL16-k0
74 | B20 | 0 % of GpH7-B3/GpL16-k0
75 | B21 | 14 % of GpH7-B3/GpL16-k0
76 | B22 | -1 % of GpH7-B3/GpL16-k0
77 | B23 | 41 % of GpH7-B3/GpL16-k0
78 | B24 | 78 % of GpH7-B3/GpL16-k0
79 | B25 | 59 % of GpH7-B3/GpL16-k0
80 | B26 | 0 % of GpH7-B3/GpL16-k0
81 | B27 | 9 % of GpH7-B3/GpL16-k0

Biological target: T3, human FcγRIIb
Test: SPR, captured antibody;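 further: antibody captured on a sensor chip, Fcγ receptor flowed over at 25 °C, receptor binding normalized to the captured antibody amount and expressed relative to the reference antibody ×100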

Row | Binder | relative binding activity
82 | B1 | 0 % of GpH7-B3/GpL16-k0
83 | B2 | 22 % of GpH7-B3/GpL16-k0
84 | B3 | -1 % of GpH7-B3/GpL16-k0
85 | B4 | -2 % of GpH7-B3/GpL16-k0
86 | B5 | 23 % of GpH7-B3/GpL16-k0
87 | B6 | 46 % of GpH7-B3/GpL16-k0
88 | B7 | 63 % of GpH7-B3/GpL16-k0
89 | B8 | 13 % of GpH7-B3/GpL16-k0
90 | B9 | 24 % of GpH7-B3/GpL16-k0
91 | B10 | 40 % of GpH7-B3/GpL16-k0
92 | B11 | 30 % of GpH7-B3/GpL16-k0
93 | B12 | -1 % of GpH7-B3/GpL16-k0
94 | B13 | 40 % of GpH7-B3/GpL16-k0
95 | B14 | 68 % of GpH7-B3/GpL16-k0
96 | B15 | 41 % of GpH7-B3/GpL16-k0
97 | B16 | -4 % of GpH7-B3/GpL16-k0
98 | B17 | 64 % of GpH7-B3/GpL16-k0
99 | B18 | 16 % of GpH7-B3/GpL16-k0
100 | B19 | 34 % of GpH7-B3/GpL16-k0
101 | B20 | 0 % of GpH7-B3/GpL16-k0
102 | B21 | 36 % of GpH7-B3/GpL16-k0
103 | B22 | -3 % of GpH7-B3/GpL16-k0
104 | B23 | 28 % of GpH7-B3/GpL16-k0
105 | B24 | 29 % of GpH7-B3/GpL16-k0
106 | B25 | 55 % of GpH7-B3/GpL16-k0
107 | B26 | -3 % of GpH7-B3/GpL16-k0
108 | B27 | 8 % of GpH7-B3/GpL16-k0
